Results reported in article PMC9482650, “Quantitative fragmentomics allow affinity mapping of interactomes” (Nature Communications, 2022).

Assays:
Experiment in all cases: holdup assay
Parameters in all cases: key: below the threshold = too weak to quantify, mostly under pKd 3.1 to 4
CARD14, Q9BXL6 = target: CARD14, Q9BXL6
CNKSR3, Q6P9H4 = target: CNKSR3, Q6P9H4
DVL2, O14641 = target: DVL2, O14641
GIPC3, Q8TF64 = target: GIPC3, Q8TF64
GRIP1_1, Q9Y3R0 = target: T1, GRIP1_1, Q9Y3R0
T1 sequence (Q9Y3R0 48-146, limits assumed, looked up): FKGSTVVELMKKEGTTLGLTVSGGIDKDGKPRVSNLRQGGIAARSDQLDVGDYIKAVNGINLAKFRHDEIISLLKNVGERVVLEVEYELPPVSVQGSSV

GRIP2_2, Q9C0E4 = target: GRIP2_2, Q9C0E4
LIMK1, P53667 = target: LIMK1, P53667
LMO7, Q8WWI1 = target: LMO7, Q8WWI1
LNX1_4, Q8TBB1 = target: LNX1_4, Q8TBB1
MAGI1_3, Q96QZ7 = target: MAGI1_3, Q96QZ7
MAGI1_4, Q96QZ7 = target: MAGI1_4, Q96QZ7
MAGI3_4, Q5TCQ9 = target: MAGI3_4, Q5TCQ9
MAGI3_6, Q5TCQ9 = target: MAGI3_6, Q5TCQ9
MLLT4, P55196 = target: T2, MLLT4, P55196
T2 sequence (P55196 1002-1103, limits assumed, looked up): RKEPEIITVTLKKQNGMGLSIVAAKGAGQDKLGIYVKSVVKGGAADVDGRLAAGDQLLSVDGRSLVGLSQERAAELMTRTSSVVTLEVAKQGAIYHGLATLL

NHERF1_2, O14745 = target: T3, NHERF1_2, O14745
T3 sequence (O14745 149-244, limits assumed, looked up): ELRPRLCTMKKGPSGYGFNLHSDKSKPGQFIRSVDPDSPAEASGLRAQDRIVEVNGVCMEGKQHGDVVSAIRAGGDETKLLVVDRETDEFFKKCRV

PARD3B_2, Q8TEW8 = target: PARD3B_2, Q8TEW8
PDZD11, Q5EBL8 = target: T4, PDZD11, Q5EBL8
T4 sequence (Q5EBL8 42-139, limits assumed, looked up): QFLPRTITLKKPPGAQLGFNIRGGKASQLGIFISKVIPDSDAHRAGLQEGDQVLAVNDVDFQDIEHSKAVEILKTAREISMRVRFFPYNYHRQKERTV

PDZD2_6, O15018 = target: T5, PDZD2_6, O15018
T5 sequence (O15018 2745-2839, limits assumed, looked up): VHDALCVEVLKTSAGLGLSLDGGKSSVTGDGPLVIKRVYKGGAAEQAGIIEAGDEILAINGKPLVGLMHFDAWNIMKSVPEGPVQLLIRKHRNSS

PDZD7_2, Q9H5P4 = target: T6, PDZD7_2, Q9H5P4
T6 sequence (Q9H5P4 205-303, limits assumed, looked up): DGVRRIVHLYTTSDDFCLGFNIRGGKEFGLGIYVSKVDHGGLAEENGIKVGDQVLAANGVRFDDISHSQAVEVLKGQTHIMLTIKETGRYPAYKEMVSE

PDZRN3_2, Q9UPQ7 = target: T7, PDZRN3_2, Q9UPQ7
T7 sequence (Q9UPQ7 414-513, limits assumed, looked up): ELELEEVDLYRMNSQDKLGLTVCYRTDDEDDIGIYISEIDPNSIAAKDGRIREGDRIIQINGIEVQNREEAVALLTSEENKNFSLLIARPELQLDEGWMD

PDZRN4_2, Q6ZMN7 = target: PDZRN4_2, Q6ZMN7
PTPN13_5, Q12923 = target: T8, PTPN13_5, Q12923
T8 sequence (Q12923 1877-1975, limits assumed, looked up): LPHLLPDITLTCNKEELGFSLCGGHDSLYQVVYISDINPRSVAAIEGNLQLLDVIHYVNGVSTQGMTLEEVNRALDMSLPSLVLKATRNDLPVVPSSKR

SNTB2, Q13425 = target: T9, SNTB2, Q13425; details: plain residues with an end cap or a label only (N-terminal biotin on a linker: (peg)3)
T9 sequence (Q13425 110-208, limits assumed, looked up): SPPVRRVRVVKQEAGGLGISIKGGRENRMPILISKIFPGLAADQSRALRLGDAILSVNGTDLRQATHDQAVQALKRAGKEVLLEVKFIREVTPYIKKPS

USH1C_2, Q9Y6N9 = target: T10, USH1C_2, Q9Y6N9
T10 sequence (Q9Y6N9 206-303, limits assumed, looked up): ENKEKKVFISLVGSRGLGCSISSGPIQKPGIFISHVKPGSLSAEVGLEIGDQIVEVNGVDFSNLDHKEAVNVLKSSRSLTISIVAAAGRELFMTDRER

USH1C_3, Q9Y6N9 = target: T11, USH1C_3, Q9Y6N9
T11 sequence (Q9Y6N9 447-547, limits assumed, looked up): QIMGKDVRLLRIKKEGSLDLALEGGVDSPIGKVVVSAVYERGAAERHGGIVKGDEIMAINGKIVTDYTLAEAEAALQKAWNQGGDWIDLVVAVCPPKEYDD

[1] = plain residues with an end cap or a label only (N-terminal biotin on a linker: (peg)3)
[2] = modified: phospho on S at position -3 from the C-terminal residue
[3] = modified: acetyl on K at position -1 from the C-terminal residue

Chain of MAGI3_6, Q5TCQ9 (Q5TCQ9 1014-1103): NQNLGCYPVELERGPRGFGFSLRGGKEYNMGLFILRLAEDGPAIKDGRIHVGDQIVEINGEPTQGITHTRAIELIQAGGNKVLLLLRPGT
Chain of PDZRN4_2, Q6ZMN7 (Q6ZMN7 389-498): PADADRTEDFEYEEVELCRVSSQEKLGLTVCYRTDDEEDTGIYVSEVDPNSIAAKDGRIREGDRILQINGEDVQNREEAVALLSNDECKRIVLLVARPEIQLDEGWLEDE
Chain of MAGI3_4, Q5TCQ9 (Q5TCQ9 716-815): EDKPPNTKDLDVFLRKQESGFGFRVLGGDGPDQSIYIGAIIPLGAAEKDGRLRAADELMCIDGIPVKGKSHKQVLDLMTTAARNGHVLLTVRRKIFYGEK
Chain of MAGI1_3, Q96QZ7 (Q96QZ7 638-725): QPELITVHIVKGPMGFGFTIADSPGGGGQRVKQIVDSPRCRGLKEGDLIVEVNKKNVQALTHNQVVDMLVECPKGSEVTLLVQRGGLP
Chain of PARD3B_2, Q8TEW8 (Q8TEW8 376-471): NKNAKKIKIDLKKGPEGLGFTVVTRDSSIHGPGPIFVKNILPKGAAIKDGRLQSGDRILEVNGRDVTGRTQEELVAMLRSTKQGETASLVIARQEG
Chain of CARD14, Q9BXL6 (Q9BXL6 558-663): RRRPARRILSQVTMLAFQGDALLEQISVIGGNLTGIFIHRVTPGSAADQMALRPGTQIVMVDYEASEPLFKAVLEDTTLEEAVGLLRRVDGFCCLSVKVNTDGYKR
Chain of LIMK1, P53667 (P53667 155-268): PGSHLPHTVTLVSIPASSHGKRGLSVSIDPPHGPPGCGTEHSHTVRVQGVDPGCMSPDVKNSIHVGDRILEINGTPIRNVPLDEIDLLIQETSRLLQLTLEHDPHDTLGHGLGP
Chain of MAGI1_4, Q96QZ7 (Q96QZ7 other isoform, or with tags, fused parts or gaps): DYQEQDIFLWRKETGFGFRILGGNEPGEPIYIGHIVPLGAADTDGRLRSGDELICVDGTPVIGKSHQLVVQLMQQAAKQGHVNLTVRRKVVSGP
Chain of LNX1_4, Q8TBB1 (Q8TBB1 631-726): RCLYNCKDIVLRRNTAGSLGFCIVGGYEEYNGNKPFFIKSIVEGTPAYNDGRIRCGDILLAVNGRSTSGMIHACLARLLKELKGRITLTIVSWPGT
Chain of LMO7, Q8WWI1 (Q8WWI1 1037-1138): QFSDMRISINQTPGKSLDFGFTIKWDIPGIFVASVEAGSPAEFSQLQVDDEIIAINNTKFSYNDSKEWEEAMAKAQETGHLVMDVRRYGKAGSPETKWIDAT
Chain of DVL2, O14641 (O14641 260-359): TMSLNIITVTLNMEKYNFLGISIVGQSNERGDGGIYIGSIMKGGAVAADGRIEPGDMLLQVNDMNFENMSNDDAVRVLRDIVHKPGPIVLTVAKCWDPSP
Chain of CNKSR3, Q6P9H4 (Q6P9H4 203-303): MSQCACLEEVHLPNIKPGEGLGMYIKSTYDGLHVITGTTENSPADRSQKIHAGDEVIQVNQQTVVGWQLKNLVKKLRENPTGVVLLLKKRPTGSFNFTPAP
Chain of GRIP2_2, Q9C0E4 (Q9C0E4 137-245): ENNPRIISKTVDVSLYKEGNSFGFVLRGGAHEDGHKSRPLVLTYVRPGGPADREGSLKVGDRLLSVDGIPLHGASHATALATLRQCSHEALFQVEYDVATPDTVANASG
Chain of GIPC3, Q8TF64 (Q8TF64 107-202): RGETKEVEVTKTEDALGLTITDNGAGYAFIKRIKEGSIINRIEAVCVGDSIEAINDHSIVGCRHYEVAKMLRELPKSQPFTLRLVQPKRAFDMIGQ

Binder: YDEPTTTTSVPL [SARS-Cov2-3a, P0DTC3]
- pKd (CARD14, Q9BXL6; [1]): below the threshold
- pKd (CNKSR3, Q6P9H4; [1]): below the threshold
- pKd (DVL2, O14641; [1]): below the threshold
- pKd (GIPC3, Q8TF64; [1]): below the threshold
- pKd (GRIP1_1, Q9Y3R0; [1]): below the threshold
- pKd (GRIP2_2, Q9C0E4; [1]): below the threshold
- pKd (LIMK1, P53667; [1]): below the threshold
- pKd (LMO7, Q8WWI1; [1]): below the threshold
- pKd (LNX1_4, Q8TBB1; [1]): below the threshold
- pKd (MAGI1_3, Q96QZ7; [1]): below the threshold
- pKd (MAGI1_4, Q96QZ7; [1]): below the threshold
- pKd (MAGI3_4, Q5TCQ9; [1]): below the threshold
- pKd (MAGI3_6, Q5TCQ9; [1]): below the threshold
- pKd (MLLT4, P55196; [1]): below the threshold
- pKd (NHERF1_2, O14745; [1]): below the threshold
- pKd (PARD3B_2, Q8TEW8; [1]): below the threshold
- pKd (PDZD11, Q5EBL8; [1]): below the threshold
- pKd (PDZD2_6, O15018; [1]): below the threshold
- pKd (PDZD7_2, Q9H5P4; [1]): below the threshold
- pKd (PDZRN3_2, Q9UPQ7; [1]): below the threshold
- pKd (PDZRN4_2, Q6ZMN7; [1]): below the threshold
- pKd (PTPN13_5, Q12923; [1]): below the threshold
- pKd (SNTB2, Q13425): below the threshold
- pKd (USH1C_2, Q9Y6N9; [1]): below the threshold
- pKd (USH1C_3, Q9Y6N9; [1]): below the threshold

Binder: RRVRKLPSTTL [RPS6KA1_-3P, Q15418]
- pKd (CARD14, Q9BXL6; [2]): below the threshold
- pKd (CNKSR3, Q6P9H4; [2]): below the threshold
- pKd (DVL2, O14641; [2]): below the threshold
- pKd (GIPC3, Q8TF64; [2]): below the threshold
- pKd (GRIP1_1, Q9Y3R0; [2]): below the threshold
- pKd (GRIP2_2, Q9C0E4; [2]): below the threshold
- pKd (LMO7, Q8WWI1; [2]): below the threshold
- pKd (LNX1_4, Q8TBB1; [2]): below the threshold
- pKd (MAGI1_3, Q96QZ7; [2]): below the threshold
- pKd (MAGI1_4, Q96QZ7; [2]): below the threshold
- pKd (MAGI3_4, Q5TCQ9; [2]): below the threshold
- pKd (MAGI3_6, Q5TCQ9; [2]): below the threshold
- pKd (MLLT4, P55196; [2]): below the threshold
- pKd (NHERF1_2, O14745; [2]): below the threshold
- pKd (PARD3B_2, Q8TEW8; [2]): below the threshold
- pKd (PDZD11, Q5EBL8; [2]): below the threshold
- pKd (PDZD2_6, O15018; [2]): below the threshold
- pKd (PDZD7_2, Q9H5P4; [2]): 3.49
- pKd (PDZRN3_2, Q9UPQ7; [2]): 3.72
- pKd (PDZRN4_2, Q6ZMN7; [2]): below the threshold
- pKd (PTPN13_5, Q12923; [2]): below the threshold
- pKd (USH1C_2, Q9Y6N9; [2]): below the threshold
- pKd (USH1C_3, Q9Y6N9; [2]): below the threshold

Binder: DEDQHTQITKV [PTEN_Ac, P60484]
- pKd (LIMK1, P53667; [3]): below the threshold
- pKd (MAGI1_3, Q96QZ7; [3]): 4.98
- pKd (MAGI3_4, Q5TCQ9; [3]): below the threshold
- pKd (MAGI3_6, Q5TCQ9; [3]): 4.08
- pKd (NHERF1_2, O14745; [3]): below the threshold
- pKd (PARD3B_2, Q8TEW8; [3]): below the threshold
- pKd (PDZD11, Q5EBL8; [3]): below the threshold
- pKd (PDZD2_6, O15018; [3]): below the threshold
- pKd (PDZRN3_2, Q9UPQ7; [3]): below the threshold
- pKd (PDZRN4_2, Q6ZMN7; [3]): below the threshold
- pKd (PTPN13_5, Q12923; [3]): below the threshold
- pKd (USH1C_2, Q9Y6N9; [3]): below the threshold
